Assay [1] addresses Purified recombinant full-length HERV-W ENV protein (pHERV-W ENV) produced in E. coli (human). As to the kind of experiment: automated capillary Western blot (Simple Western, WES); purified rENV monomers incubated in serum-free DMEM with sulfatides from bovine brain; detection with GN_mAb_Env01, or GN_mAb_Env04 after deglycosylation.
For assay [2] the target is unchanged. Description: automated capillary Western blot (Simple Western, WES); purified rENV incubated up to 24 h at 37 °C in DMEM with 10% FBS (also with 1.5% SDS overnight: only a low proportion of hexamer); samples denatured at 95 °C; detection with GN_mAb_Env01; denaturation-resistant oligomers.
For assay [3], the target named is pHERV-W ENV expressed in transfected HEK293T cells (pCMV-HERV-W ENV) (human). Description: automated capillary Western blot (Simple Western, WES); lysates of transfected HEK293T cells in RIPA with 1% fos-cholin 16, soluble and insoluble fractions, denatured at 95 °C; 12-230 kDa and 66-440 kDa matrices; detection with GN_mAb_Env01, GN_mAb_Env04, GN_mAb_Env-K01 or anti-FLAG.

Assay [4] shares this target. The description is as above. This is another data set of the same source.
In assay [5] the target is pHERV-W ENV soluble antigen from MS brain active lesions (human (endogenous in MS brain lesions)). Description: automated capillary Western blot (Simple Western, WES); soluble fraction of frozen brain white matter blocks (MS active lesions), fos-cholin 16 extraction, >= 120 kDa enriched on AMICON, denaturing conditions; detection with GN_mAb_Env01-biotin, or GN_mAb_Env04 after deglycosylation.

Values joined by “and” are separate entries in the source; they are usually repeats but may differ in a detail not shown here. Identical values can stand only once. Like-named read-outs stand apart in the source and are kept apart here.

Take “Purified recombinant full-length HERV-W ENV protein (pHERV-W ENV) produced in E. coli (natural protein)”: the stoichiometry N (in general, a count of units in the complex or per binding partner) is 6 in assay [1]; 6 and 2 in assay [2]. Take “pHERV-W ENV expressed in transfected HEK293T cells (pCMV-HERV-W ENV) (natural protein)”: the stoichiometry N amounted to 3 in assay [3] and 2 in assay [4]. “pHERV-W ENV soluble antigen from MS brain active lesions (natural protein)”: the stoichiometry N in assay [5] is 6.

For the origin of these results see publication PMC8558138.
